Data published in paper PMC7487859.

Legend:
[1] = tested on: PDGFRbeta (mouse, on 4T1 cells) (Mus musculus); assay: streptavidin-biotin cell binding assay; conditions: apparent Kd on intact 4T1 cells; Scr background subtracted; 2'-fluoro pyrimidines; 4T1 cells (2x10^4/well), 10-500 nM aptamer, 10 min, room temperature, BlockAid blocking solution with 1 mg/ml yeast tRNA and 1 mg/ml salmon sperm DNA; salt and …
[2] = tested on: PDGFRbeta (human, on MDA-MB-231 cells) (Homo sapiens); assay: cell binding assay; conditions: intact MDA-MB-231 cells; 2'-fluoro pyrimidines; 10-500 nM aptamer, 10 min, room temperature, BlockAid blocking solution with 1 mg/ml yeast tRNA and 1 mg/ml salmon sperm DNA; salt; cited from earlier work

Substance	Kd [1]	Kd [2]
Gint4.T	76.8 nM	–
Gint4.T (as in cited ref 31)	–	57.5 nM
